B1: SEQ ID NO: 24: disclosed fluorescent polypeptide having the amino acid sequence set forth in SEQ ID NO: 24 (protein, listed as Lobophyllia hemprichii)
chain: MNVIKTDMKMKLRMVGAVNGHKFEIAGEGKGKPFEGKQTMNLEVLVGGPLPFAFDILTTVFDYGNRVFVKYPRDIADYFKQSFPEGFSWERSMAYEDGGICLATNNITLMKGDCFLYEIRFDGVNFPANSPVLQKKTV
B2: PhosFluor: fluorescent protein having the amino acid sequence set forth in SEQ ID NO: 10, isolated from Scleractinia (protein)
chain: MSAHIKPNMKIKLRMEGDVNGHPFVITGEGSGKPYEGTHAIDLKVKEGGPLPFAYDILTAAFQYGNRAFTKYPADIPDYFKQSFPDGYCWERSMVFEDQGICVVKSVISLDKKEPDCFNYDIRFYGVNFPATGPVMKKKTVKWEPSTQTMYERDGVLVGDVNMALLLEGGGHHRCDFKSTYRAKGVVLNMPGNHYVDHRIEIIHHDKGYNSVTVHESAEARHCSLPSKAK
modifications: Scleractinia sp

Tests used:
[1] = Fluorescence emission spectrum compared to eGFP; format: physicochemical; conditions: samples normalized by absorption at 480 nm
Description: (§1) The fluorescence emission of a disclosed fluorescent polypeptide having the amino acid sequence set forth in SEQ ID NO: 24 was compared to eGFP. eGFP is one of the brightest fluorescent proteins created to date. Both the disclosed fluorescent polypeptide having the amino acid sequence set forth in SEQ ID NO: 24 and eGFP were cloned into a modified pET-HT vector with a TEV-cleavable His-tag, expressed in BL21-DE3 E. coli, and purified via Ni-NTA resin. The concentration of each sample was normalized by the intensity of the respective absorption spectrum at 480 nm.
(§2) Fluorescence correlation spectroscopy (FCS) measurements (not shown) also indicated the protein having the sequence set forth in SEQ ID NO: 24 is monomeric and about 1.4 times as bright as eGFP. Additionally, as FIG. 6 clearly indicates, the peak emission intensity of the disclosed fluorescent polypeptide having the amino acid sequence set forth in SEQ ID NO: 24 is about 50% greater than that of eGFP.

[2] = Fluorescence correlation spectroscopy (FCS) compared to eGFP; format: physicochemical
Description: as §1, §2

alkaline phosphatase = conditions: incubated with alkaline phosphatase
Procedure: (§3) B. Equal quantities of the recombinant PhosFluor or eGFP were subjected to phosphorylation by the indicated protein kinases or to dephosphorylation with alkaline phosphatase (Alk Phos). Fluorescence intensity (representing the change in emission of a part of the emission spectrum compared to the value at 0 hours) was measured over time during the reaction.
(§4) To determine if the fluorescence of PhosFluor could be modulated by phosphorylation, recombinant PhosFluor was incubated with different protein kinases and fluorescence was monitored (FIG. 9B).

[3] = system: protein kinases (PKA, PKC, Akt1, CamKII, MAPK); experiment: Excitation and emission spectra after phosphorylation; format: biochemical
Description: FIG. 11 discloses that phosphorylation of PhosFluor alters its spectral properties. The excitation and emission spectra of PhosFluor and eGFP are depicted under control conditions (no kinase) and after phosphorylation by the indicated kinases. The excitation and emission spectra for eGFP are all superimposed under a single curve, while phosphorylation of PhosFluor alters both spectra compared to control conditions.
The excitation and emission spectra of PhosFluor were also obtained under control conditions and when phosphorylated (FIG. 10A). […] A marked shift in the emission spectrum of PhosFluor was observed when this molecule was incubated with PKA, PKC or Akt1 (FIG. 10B). […] These observations are highly significant because changes in the emission spectrum permits ratiometric measurements to be carried out, a highly robust method for quantitating spectral change in a fluorophore. Moreover, the effects reported here were carried out on the unmodified native PhosFluor protein. Enhanced effects would be expected if this protein is optimized for phosphorylation and/or expression as disclosed herein.

[4] = Fluorescence intensity at different pH (Tris buffer); format: physicochemical; conditions: from pH 6.3 to pH 8.5
Description: A panel of fluorescent proteins was subjected to different pH conditions.

protein kinases = experiment: Fluorescence intensity of recombinant protein incubated with protein kinases; format: biochemical
Procedure: as §3, §4

[5] = system: PKA, PKC, MAPK, cdc2, Akt1, Src; experiment: Western blot / SDS-PAGE analysis of phosphorylation; format: biochemical
Procedure: Equal quantities of PhosFluor or eGFP incubated with either PKC or Src for the indicated times (in hours) were resolved on 10% SDS-PAGE gels and immunoblotted to antibodies that reveal total protein (a polyhistidine monoclonal antibody) or phospho-tyrosine. M designates the position of the monomeric form of fluorescent protein while P designates the position of phosphorylated forms of the protein that have undergone a motility shift due to increased negative charge.
Phosphorylation is known to increase the negative charge on proteins, which commonly results in an upward shift in the apparent molecular weight of the protein when resolved by SDS-PAGE (sodium dodecyl sulfate-polyacrylamide gel electrophoresis).

| Molecule | peak emission intensity greater than that of eGFP [1] | oligomeric state [2] | brightness relative to eGFP ([2]; as bright as eGFP) | increase in fluorescence intensity over time with alkaline phosphatase (alkaline phosphatase) | excitation spectrum upon phosphorylation ([3]; different protein kinases, including Akt1) | emission spectrum upon phosphorylation ([3]; incubated with PKA, PKC or Akt1) | increase in brightness [4] | fluorescence intensity when incubated with cdc2 and MAPK (protein kinases; cdc2 and MAPK, data not shown) | fluorescence intensity in the absence of added protein kinase (protein kinases; no added protein kinase) | fluorescence intensity when treated with various protein kinases (protein kinases; recombinant protein incubated with kinases) | SDS-PAGE mobility shift upon phosphorylation by PKC ([5]; PKC) | substrate for PKC and Src ([5]; PKC or Src, immunoblot) | phosphorylation of serine and threonine sites ([5]; Western blot, by PKA, PKC, MAPK, cdc2 and Akt1) |
| --- | --- | --- | --- | --- | --- | --- | --- | --- | --- | --- | --- | --- | --- |
| B1 | about 50% | monomeric | about 1.4 times | – | – | – | – | – | – | – | – | – | – |
| B2 | – | – | – | virtually abolished the increase in fluorescence intensity | dramatically altered | marked shift | > 100% | increased above background levels | increased to a lesser degree | dramatic increase in fluorescence intensity | multiple higher molecular weight species | avid substrate | phosphorylated |

— patent US8709981B2, “Isolated Australian coral reef fluorescent proteins and cell-based kinase or phosphatase platforms for cancer drug development” (priority 2009, dated 2014)
